Experimental data from patent US20240270846A1 (published 2024).

Biological target: T1, CD3 epsilon homodimer protein (UniProt P07766 23-126)
T1 construct: also called CD3 (CD3 epsilon)
Test: SPR, CD3e homodimer on chip;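 also: surface plasmon resonance at 25 degrees C, antibodies flowed as analyte over CD3 epsilon homodimer amine-coupled to a CM4 chip, running buffer HBS-EP+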

T1 sequence (P07766 23-126): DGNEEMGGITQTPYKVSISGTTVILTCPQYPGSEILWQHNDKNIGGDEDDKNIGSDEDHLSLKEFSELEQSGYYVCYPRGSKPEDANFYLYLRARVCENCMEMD

| ratio of amounts bound (altered form / unaltered GLS3000 antibody) | Binder |
| --- | --- |
| 0.39 | GLS3000 H27dW one-arm antibody (H chain CE115HA000) (antibody, human IgG1, kappa, L234A L235A, N297A, name in Kabat numbering, one-arm antibody) heavy: QVQLVESGGGVVQPGRSLRLSCAASGFTFSNAWMHWVRQAPGKGLEWVAQIKAKSNNYATYYAESVKGRFTISRDDSKNSLYLQMNSLKTEDTAVYYCRYVHYGAYYGVDAWGQGTTVTVSSASTKGPSVFPLAPSSKSTSGGTAALGCLVKDYFPEPVTVSWNSGALTSGVHTFPAVLQSSGLYSLSSVVTVPSSSLGTQTYICNVNHKPSNTKVDKKVEPKSCDKTHTCPPCPAPEAAGGPSVFLFPPKPKDTLMISRTPEVTCVVVDVSHEDPEVKFNWYVDGVEVHNAKTKPREEQYASTYRVVSVLTVLHQDWLNGKEYKCKVSNKALPAPIEKTISKAKGQPREPQVYTLPPSRCELTKNQVSLSCAVKGFYPSDIAVEWESNGQPENNYKTTPPVLDSDGSFFLVSKLTVDKSRWQQGNVFSCSVMHEALHNHYTQKSLSLSPDYKDDDDK EPKSSDKTHTCPPCPAPELLGGPSVFLFPPKPKDTLMISRTPEVTCVVVDVSHEDPEVKFNWYVDGVEVHNAKTKPREEQYNSTYRVVSVLTVLHQDWLNGKEYKCKVSNKALPAPIEKTISKAKGQPREPQVCTLPPSRDELTKNQVSLWCLVKGFYPSDIAVEWESNGQPENNYKTTPPVLDSDGSFFLYSKLTVDKSRWQQGNVFSCSVMHEALHNRYTQKSLSLSP light: DIVMTQSPLSLPVTPGEPASISCRSSQSLVWSNRNTYLHWYQQKPGQAPRLLIYKVSNRFSGVPDRFSGSGSGTDFTLKISRVEAEDVGVYYCGQGTQVPYTFGQGTKLEIKRTVAAPSVFIFPPSDEQLKSGTASVVCLLNNFYPREAKVQWKVDNALQSGNSQESVTEQDSKDSTYSLSSTLTLSKADYEKHKVYACEVTHQGLSSPVTKSFNRGEC |
| 0.64 | GLS3000 H27dY one-arm antibody (H chain CE115HA000) (antibody, human IgG1, kappa, L234A L235A, N297A, name in Kabat numbering, one-arm antibody) heavy: QVQLVESGGGVVQPGRSLRLSCAASGFTFSNAWMHWVRQAPGKGLEWVAQIKAKSNNYATYYAESVKGRFTISRDDSKNSLYLQMNSLKTEDTAVYYCRYVHYGAYYGVDAWGQGTTVTVSSASTKGPSVFPLAPSSKSTSGGTAALGCLVKDYFPEPVTVSWNSGALTSGVHTFPAVLQSSGLYSLSSVVTVPSSSLGTQTYICNVNHKPSNTKVDKKVEPKSCDKTHTCPPCPAPEAAGGPSVFLFPPKPKDTLMISRTPEVTCVVVDVSHEDPEVKFNWYVDGVEVHNAKTKPREEQYASTYRVVSVLTVLHQDWLNGKEYKCKVSNKALPAPIEKTISKAKGQPREPQVYTLPPSRCELTKNQVSLSCAVKGFYPSDIAVEWESNGQPENNYKTTPPVLDSDGSFFLVSKLTVDKSRWQQGNVFSCSVMHEALHNHYTQKSLSLSPDYKDDDDK EPKSSDKTHTCPPCPAPELLGGPSVFLFPPKPKDTLMISRTPEVTCVVVDVSHEDPEVKFNWYVDGVEVHNAKTKPREEQYNSTYRVVSVLTVLHQDWLNGKEYKCKVSNKALPAPIEKTISKAKGQPREPQVCTLPPSRDELTKNQVSLWCLVKGFYPSDIAVEWESNGQPENNYKTTPPVLDSDGSFFLYSKLTVDKSRWQQGNVFSCSVMHEALHNRYTQKSLSLSP light: DIVMTQSPLSLPVTPGEPASISCRSSQSLVYSNRNTYLHWYQQKPGQAPRLLIYKVSNRFSGVPDRFSGSGSGTDFTLKISRVEAEDVGVYYCGQGTQVPYTFGQGTKLEIKRTVAAPSVFIFPPSDEQLKSGTASVVCLLNNFYPREAKVQWKVDNALQSGNSQESVTEQDSKDSTYSLSSTLTLSKADYEKHKVYACEVTHQGLSSPVTKSFNRGEC |
